Laboratory results: paper PMC6391183

Target: Ago2 PAZ domain (human, UniProt Q9UKV8 227-371)
Assay: ITC

Ago2 PAZ domain, sequence (Q9UKV8 227-371): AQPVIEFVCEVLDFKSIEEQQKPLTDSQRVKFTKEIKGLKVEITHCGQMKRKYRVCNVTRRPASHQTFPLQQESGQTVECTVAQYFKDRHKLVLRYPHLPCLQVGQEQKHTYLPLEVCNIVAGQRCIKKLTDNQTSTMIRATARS

For AGAGUCACGCUUU (ssRNA) [native RNA], the Kd was 600 nM.
